Square brackets hold non-standard residues; d marks the D form. Ends that are not written are not given here. pT = C[C@@H](OP(=O)(O)O)[C@H](N)C(=O)O
Experiments:
Bub1^289–359–R314A–Bub3 = biological target: T1, Bub1^289–359–R314A–Bub3 (Saccharomyces cerevisiae, UniProt P26449+P41695, R314A); assay type: binding; conditions: ITC; Bub3-Bub1^R314A mutant compared to wild type Bub3–Bub1; MELT4^P: data not shown
T1 construct: S. cerevisiae Bub1^289–359 and for full length Bub3; ITC experiment with the MELT2^P peptide and the Bub1^289–359–R314A–Bub3 complex; GST (N, cleaved yes); made in house; host or cells: E. coli BL21 DE3 plysS
Source text: Such function of Bub1 is probably exerted primarily through its structuring effects on the 4-stranded β-sheet ‘roof’ that dominates the peptide-binding region of Bub3 and which restrains the position of the positively charged residues in the ‘north’ area of the MELT^P-binding site (Figure 4E). Additionally, we observe that Arg314^Bub1, in the β1-β2 loop, contributes to the interaction with the phosphate group of P-Thr172^Spc105/Knl1 (the interaction, however, is only observed in one of the two complexes in the asymmetric unit, and in proximity of a crystal contact) and is therefore directly engaged in the interaction with the MELT2^P peptide. In ITC measurements, we observed a ∼fourfold reduction in the binding affinity of the Bub3-Bub1^R314A mutant for the MELT2^P peptide, in agreement with a role of Arg314^Bub1 is in the interaction of the Bub1-Bub3 complex with MELT2^P (Figure 4F). Similarly, Bub3–Bub1^R314A bound the MELT4^P with ∼threefold decreased affinity compared to wild type Bub3–Bub1 (data not shown).
Binding isotherm was measured at 25°C by isothermal titration calorimetry on a MicroCal ITC200 device (GE Healthcare, Piscataway, NJ). All samples were extensively dialysed into fresh GF buffer (20 mM Tris pH7.5, 150 mM NaCl, 1 mM DTE). […]

Bub1^289–359–Bub3 = biological target: T2, Bub1^289–359–Bub3 (Saccharomyces cerevisiae, UniProt P26449+P41695); assay: ITC binding of MELT peptides to Bub1^289–359–Bub3 (wild type); conditions: 25°C, 20 mM Tris pH7.5, 150 mM NaCl, 1 mM DTE, complex 30 µM in cell, peptide 400 µM
T2 construct: S. cerevisiae Bub1^289–359 and for full length Bub3; GST (N, cleaved yes); made in house; host or cells: E. coli BL21 DE3 plysS
T2 sequence (P26449 1-341): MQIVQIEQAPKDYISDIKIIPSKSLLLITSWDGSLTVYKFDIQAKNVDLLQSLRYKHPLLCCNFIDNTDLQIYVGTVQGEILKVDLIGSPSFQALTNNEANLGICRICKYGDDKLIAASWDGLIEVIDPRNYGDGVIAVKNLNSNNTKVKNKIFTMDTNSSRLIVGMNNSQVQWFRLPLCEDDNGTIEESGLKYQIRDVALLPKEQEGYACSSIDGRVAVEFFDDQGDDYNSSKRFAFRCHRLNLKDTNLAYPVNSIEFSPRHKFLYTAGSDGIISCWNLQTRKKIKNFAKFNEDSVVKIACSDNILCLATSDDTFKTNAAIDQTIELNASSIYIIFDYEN
T2 sequence (P41695 289-359): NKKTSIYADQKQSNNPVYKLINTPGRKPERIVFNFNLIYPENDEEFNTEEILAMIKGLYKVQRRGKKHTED
Source text: We generated recombinant ScBub1^289–359–Bub3 (where the Bub1 segment is equivalent to the minimal kinetochore targeting region of human Bub1 [[Krenn et al., 2012]]) by bacterial co-expression and purified it to homogeneity (Figure 1D). To assess whether Bub1–Bub3 binds directly to MELT^P sequences, we tested its ability to bind MELT sequences in quantitative isothermal titration calorimetry (ITC) binding experiments. 19-residue synthetic peptides encompassing the sequences of the second and fourth MELT^P motifs of Spc105/Knl1 (indicated as MELT2 and MELT4, respectively), each flanked by four and eleven residues on the N- and C-terminal ends, respectively, were tested (Figure 1C). […] Thus, ScBub1^289–359–Bub3 is sufficient for the reconstitution of tight interactions with two MELT^P peptides in vitro that recapitulate a salient feature of this interaction, its dependency on phosphorylation.
cDNA sequences coding for S. cerevisiae Bub1^289–359 and for full length Bub3 were subcloned in the first and second cassettes of pGEX-6P-2rbs vector ([Ciferri et al., 2005]). In this construct, the cDNA encoding Bub1^289–359 was sub-cloned in frame with the gene encoding GST and a cleavage site for PreScission protease, and was translated from the first ribosome-binding site (rbs). Untagged Bub3 was subcloned downstream of the second rbs in the same vector. Expression was carried out in BL21 DE3 plysS cells in LB medium by auto-induction with 0.3% lactose at 18°C for approximately 16 hr. Cells were harvested by centrifugation and resuspended in Buffer A (20 mM Tris pH 7.5, 300 mM NaCl, 10% Glycerol, 1 mM DTE, 1 mM EDTA pH 8.0, 1 mM PMSF) typically at a dilution of 3 ml lysis buffer per ml of bacterial pellet. Cells were lysed by sonication, and the lysates were cleared by centrifugation at 75000 × g for 45 min. The resulting clear supernatant was incubated with gentle rotation with 1/50 (vol/vol) of GSH-sepharose slurry (GE Healthcare) for 1–2 hr at 4°C. Beads were washed with 150 vol of Buffer A. To elute the Bub1–Bub3 complex from beads, GST-PreScission protease (0.02 mg/mg of protein target) was added for 16 hr at 4°C. The eluate was concentrated on Amicon Ultra Centrifugal Filters MwCO 3000 (Merck Millipore, Billerica, MA) and further purified by size exclusion chromatography (SEC) on a Superdex 75 16/60 column using GF buffer (20 mM Tris pH 7.5, 150 mM NaCl, 1 mM DTE). The complex eluted in a single peak with apparently stoichiometric amounts of Bub1^289–359 and Bub3 and was subsequently concentrated to ∼10 mg/ml for crystallization or to 2–4 mg/ml for ITC experiments. […]
Binding isotherm was measured at 25°C by isothermal titration calorimetry on a MicroCal ITC200 device (GE Healthcare, Piscataway, NJ). […]

[1] = biological target: ScBub1^289–359–Bub3 complex (S. cerevisiae) (UniProt P41695); assay: ITC; 25°C, MicroCal ITC200; 20 mM Tris pH7.5, 150 mM NaCl, 1 mM DTE; Bub1^289–359–Bub3 in the cell at 30 µM, titrated with thirty-five 2-µl injections of peptide at 400 µM; single-site binding model
[2] = biological target: T3, Bub1^289–359–R314A–Bub3 complex (S. cerevisiae, UniProt P41695 289-359; P26449 1-341, R314A); assay: ITC
T3 sequence 1: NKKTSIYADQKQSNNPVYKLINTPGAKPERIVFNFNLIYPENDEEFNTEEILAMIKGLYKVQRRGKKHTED
T3 sequence 2: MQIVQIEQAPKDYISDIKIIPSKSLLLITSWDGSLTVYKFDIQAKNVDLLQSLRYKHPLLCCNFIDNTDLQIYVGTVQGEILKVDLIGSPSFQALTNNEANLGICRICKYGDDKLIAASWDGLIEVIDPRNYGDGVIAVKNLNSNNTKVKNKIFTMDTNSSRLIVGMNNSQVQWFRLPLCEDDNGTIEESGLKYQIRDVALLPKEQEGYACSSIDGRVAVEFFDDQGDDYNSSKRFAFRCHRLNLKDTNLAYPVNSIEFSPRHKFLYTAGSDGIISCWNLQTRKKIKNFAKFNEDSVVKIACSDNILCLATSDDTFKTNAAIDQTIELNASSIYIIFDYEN

Bub3 (S. cerevisiae) = biological target: T4, Bub3 (S. cerevisiae) (S. cerevisiae, UniProt P26449 1-341); assay: ITC; 25°C, MicroCal ITC200; 20 mM Tris pH7.5, 150 mM NaCl, 1 mM DTE; Bub1^289–359–Bub3 in the cell at 30 µM, titrated with thirty-five 2-µl injections of peptide at 400 µM; single-site binding model; conditions: both partners purified
T4 construct: Bub3, S. cerevisiae, full length (7-bladed WD40 beta-propeller); The methods tell the construct only for Bub3 co-expressed with Bub1; also called ScBub3; purified Bub3; source: Bub3 alone: purified, expression not described
T4 sequence (looked up): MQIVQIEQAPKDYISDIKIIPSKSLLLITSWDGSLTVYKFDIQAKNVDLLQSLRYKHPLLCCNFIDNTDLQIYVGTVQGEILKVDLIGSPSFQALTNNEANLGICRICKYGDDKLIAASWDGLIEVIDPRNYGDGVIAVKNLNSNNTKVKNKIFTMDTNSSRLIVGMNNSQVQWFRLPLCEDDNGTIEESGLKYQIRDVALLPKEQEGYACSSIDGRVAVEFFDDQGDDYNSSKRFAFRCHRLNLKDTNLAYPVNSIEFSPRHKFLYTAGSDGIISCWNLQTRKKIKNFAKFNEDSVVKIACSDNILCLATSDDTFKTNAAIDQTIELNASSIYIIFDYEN

[3] = biological target: T5, Bub1^289–359–Bub3^R217A complex (S. cerevisiae, UniProt P41695 289-359; P26449 1-341, R217A); assay: as above; conditions: both partners purified
T5 construct: Bub3, S. cerevisiae, full length, with R217A; also called R217A mutant; source: expressed and purified essentially like the wild type complex (E. coli, GSH-sepharose, PreScission cleavage, SEC)
T5 sequence (looked up) 1: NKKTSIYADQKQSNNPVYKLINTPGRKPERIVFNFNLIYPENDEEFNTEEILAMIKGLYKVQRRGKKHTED
T5 sequence (looked up) 2: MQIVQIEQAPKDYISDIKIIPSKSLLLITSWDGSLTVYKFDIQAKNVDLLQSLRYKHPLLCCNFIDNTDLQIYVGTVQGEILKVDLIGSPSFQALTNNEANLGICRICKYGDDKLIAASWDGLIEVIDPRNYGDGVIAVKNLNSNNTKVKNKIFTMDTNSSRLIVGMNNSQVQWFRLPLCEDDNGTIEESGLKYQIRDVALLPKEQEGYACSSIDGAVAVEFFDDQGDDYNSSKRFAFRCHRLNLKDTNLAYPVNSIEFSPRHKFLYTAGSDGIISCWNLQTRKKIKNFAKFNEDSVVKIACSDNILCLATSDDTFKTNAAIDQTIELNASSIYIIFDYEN

[4] = biological target: T6, Bub1^289–359–R314A–Bub3 complex (S. cerevisiae, UniProt P41695 289-359; P26449 1-341, R314A); assay: as above; conditions: both partners purified
T6 construct: Bub3, S. cerevisiae, full length; Probably GST-tagged on Bub1 and cleaved as the wild type; also called Bub3-Bub1^R314A mutant; Bub3–Bub1^R314A
T6 sequence (looked up) 1: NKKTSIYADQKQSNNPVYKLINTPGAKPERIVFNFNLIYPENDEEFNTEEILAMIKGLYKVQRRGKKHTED
T6 sequence (looked up) 2: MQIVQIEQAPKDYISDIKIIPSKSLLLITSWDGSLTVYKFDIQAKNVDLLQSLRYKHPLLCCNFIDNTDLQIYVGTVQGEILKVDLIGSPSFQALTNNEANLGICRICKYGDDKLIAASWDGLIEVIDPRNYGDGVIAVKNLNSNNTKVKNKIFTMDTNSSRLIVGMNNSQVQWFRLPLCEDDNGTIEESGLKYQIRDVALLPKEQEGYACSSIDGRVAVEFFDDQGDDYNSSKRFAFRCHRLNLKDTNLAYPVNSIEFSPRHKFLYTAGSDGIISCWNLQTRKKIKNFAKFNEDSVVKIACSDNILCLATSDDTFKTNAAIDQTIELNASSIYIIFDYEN

[5] = biological target: T7, Bub1^289–359–Bub3^R239A complex (S. cerevisiae, UniProt P41695 289-359; P26449 1-341, R239A); assay: as above; conditions: both partners purified
T7 construct: Bub3, S. cerevisiae, full length, with R239A; also called R239A mutant; source: expressed and purified essentially like the wild type complex (E. coli, GSH-sepharose, PreScission cleavage, SEC)
T7 sequence (looked up) 1: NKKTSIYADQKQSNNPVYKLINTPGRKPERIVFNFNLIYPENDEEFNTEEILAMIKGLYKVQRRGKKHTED
T7 sequence (looked up) 2: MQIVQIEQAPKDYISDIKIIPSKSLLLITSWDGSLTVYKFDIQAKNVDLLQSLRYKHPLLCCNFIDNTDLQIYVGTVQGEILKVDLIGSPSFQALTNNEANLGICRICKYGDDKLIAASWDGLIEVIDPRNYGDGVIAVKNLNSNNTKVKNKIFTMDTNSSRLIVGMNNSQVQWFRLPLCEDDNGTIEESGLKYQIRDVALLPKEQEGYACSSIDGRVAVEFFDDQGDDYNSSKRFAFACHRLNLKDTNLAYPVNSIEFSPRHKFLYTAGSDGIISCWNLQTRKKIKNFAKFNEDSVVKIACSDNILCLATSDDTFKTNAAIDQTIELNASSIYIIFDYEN

[6] = biological target: T6, Bub1^289–359–R314A–Bub3 complex; assay: ITC; data not shown; method taken from the sentence before it (ITC measurements); conditions: both partners purified

Molecule: DTVEGEPIDL{PTHR}EYESKPYVPN [MELT4^P]
- fold reduction in binding affinity (Bub1^289–359–R314A–Bub3): threefold
- binding (in words) (Bub1^289–359–Bub3): no binding

Molecule: GGGPA{pTHR}PKKAKKL [H1^P, Histone H1-derived phosphorylated peptide GGGPA{pTHR}PKKAKKL, AnaSpec catalog number 61741, reference compound]
- binding (in words) (Bub1^289–359–Bub3): No binding
- binding (in words) (Bub1^289–359–Bub3; listed as unrelated phospho-peptide): did not show any binding affinity

Molecule: MELT2^P peptide (phosphorylated second MELT repeat of Spc105/Knl1)
- Kd [1]: 200 nM

Molecule: MELT4^P peptide (phosphorylated fourth MELT repeat of Spc105/Knl1)
- Kd [1]: 1300 nM

B1: MELT2^P peptide (phosphorylated second MELT repeat of Spc105/Knl1) (peptide)
peptide: DPTSMEM[pT]EVFPRSIRQKN
modifications: not fully specified
- Kd [2]: 790 nM

B2: MELT2^P peptide (phosphorylated second MELT repeat of Spc105/Knl1) (peptide)
peptide: DPTSMEM[pT]EVFPRSIRQKN
notes: Spc105/Knl1, S. cerevisiae, second MELT repeat with four residues before and eleven after; Met169, Glu170, Met171, P-Thr172, Phe175 are the printed numbers; The end groups are told only for the peptide used for crystallisation; also called MELT^P peptide; Spc105/Knl1 phosphopeptide; source: synthetic peptide, custom made by GeneScript (95% purity)
- Kd (Bub3 (S. cerevisiae)): 2000 nM
- Kd [3]: 2700 nM
- fold reduction in binding affinity against wild type Bub1^289–359–Bub3 [4]: ~4 fold
- Kd [5]: 5000 nM

B3: MELT4^P peptide (phosphorylated fourth MELT repeat of Spc105/Knl1) (peptide)
peptide: DTVEGEPIDL[pT]EYESKPYVPN
notes: Spc105/Knl1, S. cerevisiae, fourth MELT repeat; also called fourth MELT^P peptide; source: synthetic peptide, custom made by GeneScript (95% purity)
- fold decrease in affinity against wild type Bub3–Bub1 [6]: ~3 fold
